Patent publication US20100297149A1 (ATYR PHARMA, published 2010)

Target: T1, human CCR1-EGFP expressed on HEK293T cells (human, UniProt P32246 1-355)
T1 construct: whole, on cells; Transiently transfected HEK293T cells; the fusion localized to the cell membrane; also called CCR1-expressing cells; not shown: EGFP from the pEGFP-N1 vector
T1 sequence (looked up): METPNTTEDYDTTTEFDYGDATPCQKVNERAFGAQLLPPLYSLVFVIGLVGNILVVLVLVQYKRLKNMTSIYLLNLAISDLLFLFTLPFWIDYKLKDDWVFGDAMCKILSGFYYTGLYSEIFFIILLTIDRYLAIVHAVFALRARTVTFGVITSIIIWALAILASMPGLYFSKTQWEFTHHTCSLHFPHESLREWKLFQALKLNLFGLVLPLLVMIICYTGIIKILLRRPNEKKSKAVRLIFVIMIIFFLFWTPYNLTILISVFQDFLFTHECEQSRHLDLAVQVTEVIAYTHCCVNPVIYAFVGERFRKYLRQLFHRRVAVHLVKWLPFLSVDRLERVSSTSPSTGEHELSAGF
Assay: flow cytometry (FACS) on CCR1-EGFP-transfected HEK293T cells, detection with FITC anti-tag antibody
Protocol: Human CCR5 was amplified and cloned into to pEGFP-N1 vector. Human CCR1 receptor, also a CC chemokine receptor, was included as a control. HEK293T cells were transfected with CCR5-EGFP or CCR1-EGFP plasmids and 1d after transfection, cells were washed with PBS and detached from culture dish by trypsin. 1×10″6 cells were put into FACS tube in 100 μl complete media and kept on ice (cells were kept cold for remainder of the assay). Cells were treated with recombinant HRS-SV11 protein for 45′. Then cells were washed once with 1 ml staining buffer (1×PBS+3% FBS) and spin down at 4° C., 400×g for 10′. After wash, cells were incubated with 0.3 μl primary anti-V5-FITC antibody (3 μg/ml) in 100 μl staining buffer for 30′ in dark (kept in dark for remainder of the assay). Cells were then washed twice with 1 ml staining buffer, 4° C., 400×g for 10′ and spun down. After the final wash, cell pellets were resuspended in 800 μl staining buffer and analyzed immediately by FACS.

B1: recombinant HRS-SV11 splice variant polypeptide of human histidyl-tRNA synthetase with C-terminal polyhistidine tag (6xHis) (ligand)
chain: MAERAALEELVKLQGERVRGLKQQKASAELIEEEVAKLLKLKAQLGPDESKQKFVLKTPKALEEKIRTTETQVLVASAQKKLLEERLKLVSELWDAGIKAELLYKKNPKLLNQLQYCEEAGIPLVAIIGEQELKDGVIKLRSVTSREEVDVRREDLVEEIKRRTGQPLCICHHHHHH
notes: Expressed in E. coli from pET20b (EcoRV/NotI, no stop codon) and purified on Ni-NTA; By gel filtration it switches between monomer and dimer; also called wild type HRS-SV11
B1: no binding.
